{"source": "paper PMC11485255", "about": "“Structure of a fully assembled γδ T cell antigen receptor” (Nature, 2024)", "key": {"[1]": {"target": "T1, CD3-ε, full length, GFP2-fused (human, UniProt P07766)", "T1 construct": "CD3-ε, full length; source: CHO-S, lentiviral transduction, co-expressed with the other subunits; purified as the complex from LMNG-solubilised membranes (Strep-Tactin XT, SEC in GDN)", "T1 sequence (P07766 23-207)": "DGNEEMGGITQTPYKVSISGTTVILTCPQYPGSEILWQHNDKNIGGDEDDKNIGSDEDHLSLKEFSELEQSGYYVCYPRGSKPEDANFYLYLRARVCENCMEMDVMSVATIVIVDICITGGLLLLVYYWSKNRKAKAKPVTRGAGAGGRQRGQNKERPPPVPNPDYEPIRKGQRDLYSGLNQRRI", "assay": "cryo-EM structure; subunits co-expressed in CHO-S and purified as one complex in detergent; tenfold molar excess of UCHT1 Fab added before a final SEC in 10 mM HEPES pH 7.4, 150 mM NaCl, 0.02% GDN; 3.01 Å consensus map and 3.39 Å TM-focused map", "conditions": "both partners purified"}, "CD3ε on Jurkat T cells": {"target": "T2, CD3ε on Jurkat T cells (human (endogenous in Jurkat), UniProt P07766)", "T2 construct": "CD3-ε as part of the TCR–CD3 complex at the cell surface; source: endogenous, on Jurkat T cells (TCR transductants)", "T2 sequence (P07766 23-207)": "as above", "assay": "flow cytometry on cells; cells pre-incubated with increasing concentrations of UCHT1 Fab, then stained with fluorescent UCHT1 antibody", "conditions": "one partner purified"}}, "data": [{"binder": "Fab fragment of the anti-human CD3ε murine antibody UCHT1 (Fab, V domains shown, VH domain of UCHT1; C-γ1 domain of murine IgG1, residues 1-103 of P01868-1; Vκ domain of UCHT1; murine constant kappa domain; Both chains were expressed under a modified cPTPRσ signal peptide ([residues removed], last two residues changed for a KpnI site); also called UCHT1 Fab; source: CHO-K1, lentiviral transduction, purified from culture supernatant (CaptureSelect C-tagXL, Superdex 200)) VH: EVQLQQSGPELVKPGASMKISCKASGYSFTGYTMNWVKQSHGKNLEWMGLINPYKGVSTYNQKFKDKATLTVDKSSSTAYMELLSLTSEDSAVYYCARSGYYGDSDWYFDVWGQGTTLTVFS VL: DIQMTQTTSSLSASLGDRVTISCRASQDIRNYLNWYQQKPDGTVKLLIYYTSRLHSGVPSKFSGSGSGTDYSLTISNLEQEDIATYFCQQGNTLPWTFAGGTKLEIK", "values": [{"measurement": "binding result", "setting": "[1]", "result": "binds"}, {"measurement": "binding result", "setting": "CD3ε on Jurkat T cells", "result": "binds"}]}]}
